Measurements reported in publication PMC7954794, “Protein context shapes the specificity of SH3 domain-mediated interactions in vivo” (Nature Communications, 2021).

B1: YHR114W (protein, UniProt P38822 1-633, looked up)
Protein BZZ1: MSADLSIGNEIKDSFKETHKWVQNNLKWLKDIEQFYRERAKLEKDYSERLSRLSAEYFNKKSSTSVPISVGDTPTTTPGSIEAAGVVAWNEILSQTDMISKDHDQLSTDFENHVANQLSGLFTKLDMTLSKINGFNNDMVNKKDNIYHELEKAKKDYDEACSTMEMARNRYTKASNDRNKKKLDEKEMEMNKCKNEYLIKINQANRTKDKYYFQDVPEVLDLLQDVNEAKTLFLNDLWLKAASVENDLGANVSKRLQAANSVVKQNKPSLNTAIFIKHNLKNWKEPQDFVYKPSPVWHDDEKFAVPSSLEVEDLRIKLAKAENDYNSLQDKTQNELSKLSTLNKIKHEMKTNEDNINATKFYDTLKEYLNVVSPFTSHETLKLQAEVQIESIQNNVPEEYDLSTDNIDLSKTKKKSGIFSKFKHNILNVDSKPSSGGSTGNGNGGPLHITSLFNTSRRTRLGSAPNNAGEDSDNNSIRTTSTNNTKKTTQNSSDDGKNKVLYAYVQKDDDEITITPGDKISLVARDTGSGWTKINNDTTGETGLVPTTYIRISSAATVKANDRGPAPEVPPPRRSTLPVRTMEAIYAYEAQGDDEISIDPGDIITVIRGDDGSGWTYGECDGLKGLFPTSYCK
B2: ABP1 Y7Y (protein, UniProt P15891 2-592, looked up)
Actin-binding protein: ALEPIDYTTHSREIDAEYLKIVRGSDPDTTWLIISPNAKKEYEPESTGSSFHDFLQLFDETKVQYGLARVSPPGSDVEKIIIIGWCPDSAPLKTRASFAANFAAVANNLFKGYHVQVTARDEDDLDENELLMKISNAAGARYSIQTSSKQQGKASTPPVKKSFTPSKSPAPVSKKEPVKTPSPAPAAKISSRVNDNNDDDDWNEPELKERDFDQAPLKPNQSSYKPIGKIDLQKVIAEEKAKEDPRLVQKPTAAGSKIDPSSDIANLKNESKLKRDSEFNSFLGTTKPPSMTESSLKNDDDKVIKGFRNEKSPAQLWAERKAKQNSGNAETKAEAPKPEVPEDEPEGEPDVKDLKSKFEGLAASEKEEEEMENKFAPPPKKSEPTIISPKPFSKPQEPVKAEEAEQPKTDYKKIGNPLPGMHIEADNEEEPEENDDDWDDDEDEAAQPPLPSRNVASGAPVQKEEPEQEEIAPSLPSRNSIPAPKQEEAPEQAPEEEIEEEAEEAAPQLPSRSSAAPPPPPRRATPEKKPKENPWATAEYDYDAAEDNELTFVENDKIINIEFVDDDWWLGELEKDGSKGLFPSNYVSLGN
modifications: synonymous codon change Y7Y in SH3
B3: ABP1 Y9Y (protein, UniProt P15891 2-592, looked up)
Actin-binding protein: B2 Actin-binding protein
modifications: synonymous codon change Y9Y
B4: ABP1 D10D (protein, UniProt P15891 2-592, looked up)
Actin-binding protein: B2 Actin-binding protein
modifications: synonymous D10D codon change
B5: ABP1 A11A (protein, UniProt P15891 2-592, looked up)
Actin-binding protein: B2 Actin-binding protein
modifications: synonymous codon change A11A in SH3
B6: ABP1 V54V (protein, UniProt P15891 2-592, looked up)
Actin-binding protein: B2 Actin-binding protein
modifications: synonymous V54V
B7: ABP1 S55S (protein, UniProt P15891 2-592, looked up)
Actin-binding protein: B2 Actin-binding protein
modifications: synonymous codon change S55S
B8: ABP1 G57G (protein, UniProt P15891 2-592, looked up)
Actin-binding protein: B2 Actin-binding protein
modifications: synonymous G57G codon change in SH3 domain
B9: ABP1 N58N (protein, UniProt P15891 2-592, looked up)
Actin-binding protein: B2 Actin-binding protein
modifications: synonymous codon change N58N
B10: ABP1 V31V (protein, UniProt P15891 2-592, looked up)
Actin-binding protein: B2 Actin-binding protein
modifications: synonymous codon change V31
B11: ABP1 D32D (protein, UniProt P15891 2-592, looked up)
Actin-binding protein: B2 Actin-binding protein
modifications: synonymous D32D codon change
B12: ABP1 D33D (protein, UniProt P15891 2-592, looked up)
Actin-binding protein: B2 Actin-binding protein
modifications: synonymous D33D codon change
B13: ABP1 D34D (protein, UniProt P15891 2-592, looked up)
Actin-binding protein: B2 Actin-binding protein
modifications: synonymous codon change D34D

What follows are molecules tested on ABP1 (assay: DHFR-PCA on solid medium, bait ABP1 (Fig. 1B)). Settings: bait ABP1, label = prey; 2-4 replicates.
Format: cell-based, Saccharomyces cerevisiae
From the text: (§1) Supplement 41467_2021_21873_MOESM8_ESM.xlsx, sheet "Fig1B" | column: medsize; medrep; Ratio; Score

Row | Molecule | medrep (log2 median colony size normalized to plate background, PCA score)
1 | B1 | 3.834

What follows are molecules tested on Hua2 and Lsb3 (assay: Classification of Abp1 SH3 mutations by effect on Hua2 and Lsb3 DMS scores (quadrant)). Settings: class of mutation by Hua2 and Lsb3 DMS scores (Dest. both, Dest. Hua2, Dest. Lsb3, Neutral).
Format: cell-based, Saccharomyces cerevisiae

Row | Molecule | quadrant
2 | B2 | Neutral
3 | B3 | Neutral
4 | B4 | Neutral
5 | B5 | Neutral

The molecules below were run on Hua2 (assay: Deep mutational scanning of Abp1 SH3, Abp1-Hua2 DHFR-PCA (DMS score)). Settings: Abp1-Hua2; frequencies scaled to the synonymous mutation distribution.
Format: cell-based, Saccharomyces cerevisiae
Outline: (§2)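 Saturation mutagenesis (NNN per codon) of Abp1 SH3, reintegrated at the genomic locus in yeast and mated with Hua2- or Lsb3-DHFR F[3] prey strains. Diploids underwent two rounds of liquid DHFR-PCA selection (72 h each, 30 °C), in biological duplicate. Mutant abundance was tracked by Illumina sequencing against the pre-selection reference.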

Row | Molecule | hua2sc (DMS score)
6 | B2 | 0.2398
7 | B3 | -0.7456
8 | B4 | -0.2777
9 | B5 | 0.2975

Same assay, conditions: Abp1-Hua2 DHFR-PCA, DMS score

Row | Molecule | hua2sc (frequencies scaled to the synonymous mutation distribution, DMS score)
10 | B6 | -0.1199
11 | B7 | -0.05585
12 | B8 | -0.4468
13 | B9 | -0.8159

Same assay, conditions: Abp1-Hua2 DHFR-PCA, MTX2

Row | Molecule | HUA2_MTX2 (frequencies normalized to the reference condition)
14 | B6 | 1.4929
15 | B7 | 1.557
16 | B8 | 1.166
17 | B9 | 0.7969

Same assay, conditions: Abp1-Hua2 DHFR-PCA, MTX2; DMS score scaled to the synonymous mutation distribution

Row | Molecule | hua2sc (frequencies scaled to the synonymous mutation distribution, DMS score)
18 | B10 | -0.7307
19 | B11 | -0.3604
20 | B12 | 0.4122
21 | B13 | -0.3883

Same assay, conditions: Abp1-Hua2 DHFR-PCA, MTX2; normalized to the reference condition

Row | Molecule | HUA2_MTX2 (frequencies normalized to the reference condition)
22 | B10 | 0.882
23 | B11 | 1.252
24 | B12 | 2.025
25 | B13 | 1.224

Same assay, conditions: Abp1 SH3 DMS; Abp1-Hua2 DHFR-PCA, MTX2; frequencies normalized to the reference condition

Row | Molecule | HUA2_MTX2 (frequency normalized to the reference condition)
26 | B2 | 1.853
27 | B3 | 0.8672
28 | B4 | 1.335
29 | B5 | 1.91

What follows are molecules tested on Hua2 and Lsb3 (Abp1-Hua2 and Abp1-Lsb3 PPIs) (assay: Deep mutational scanning of Abp1 SH3, quadrant classification from Hua2 and Lsb3 DMS scores). Settings: class from DMS scores for Hua2 and Lsb3.
Format: cell-based, Saccharomyces cerevisiae

Row | Molecule | quadrant
30 | B6 | Neutral
31 | B7 | Neutral
32 | B8 | Neutral
33 | B9 | Neutral

The molecules below were run on Hua2 and Lsb3 (assay: Classification of Abp1 SH3 mutants by DMS scores with Hua2 and Lsb3 (quadrant)). Settings: class by DMS scores with Hua2 and Lsb3 (Dest. both, Dest. Hua2, Dest. Lsb3, Neutral).
Format: cell-based, Saccharomyces cerevisiae

Row | Molecule | quadrant
34 | B10 | Neutral
35 | B11 | Neutral
36 | B12 | Neutral
37 | B13 | Neutral

The molecules below were run on BZZ1-1 (assay: DHFR-PCA on solid medium, bait BZZ1-1 (Fig. 1B)). Settings: bait BZZ1-1, label = prey; 4 replicates.
Format: cell-based, Saccharomyces cerevisiae
From the text: Supplement 41467_2021_21873_MOESM8_ESM.xlsx, sheet "Fig1B" | column: medsize; medrep; Score

Row | Molecule | medrep (log2 median colony size normalized to plate background, PCA score)
38 | B1 | 4.137

The molecules below were run on BBC1 (assay: DHFR-PCA on solid medium, bait BBC1 (Fig. 1B)). Settings: bait BBC1, label = prey; 2-4 replicates.
Format: cell-based, Saccharomyces cerevisiae
From the text: as §1

Row | Molecule | medrep (log2 median colony size normalized to plate background, PCA score)
39 | B1 | 1.475

Same assay, conditions: bait BBC1, label = prey; only significant differences showed; PPIs completely lost have a ratio of 0.1 and the gained PPIs 2.5

Row | Molecule | Ratio (SH3-deleted/WT medrep)
40 | B1 | 0.1

Each molecule was assayed on Lsb3 (assay: Deep mutational scanning of Abp1 SH3, Abp1-Lsb3 DHFR-PCA (DMS score)). Settings: Abp1-Lsb3; frequencies scaled to the synonymous mutation distribution.
Format: cell-based, Saccharomyces cerevisiae
Outline: as §2

Row | Molecule | lsb3sc (DMS score)
41 | B2 | -0.04736
42 | B3 | -0.3936
43 | B4 | 0.006531
44 | B5 | 0.4621

Same assay, conditions: Abp1-Lsb3 DHFR-PCA, DMS score

Row | Molecule | lsb3sc (frequencies scaled to the synonymous mutation distribution, DMS score)
45 | B6 | -0.8004
46 | B7 | 0.2461
47 | B8 | -0.3559
48 | B9 | -0.6649

Same assay, conditions: Abp1-Lsb3 DHFR-PCA, MTX2

Row | Molecule | LSB3_MTX2 (frequencies normalized to the reference condition)
49 | B6 | 0.6999
50 | B7 | 1.746
51 | B8 | 1.1444
52 | B9 | 0.8354

Same assay, conditions: Abp1-Lsb3 DHFR-PCA, MTX2; DMS score scaled to the synonymous mutation distribution

Row | Molecule | lsb3sc (frequencies scaled to the synonymous mutation distribution, DMS score)
53 | B10 | -0.4906
54 | B11 | -0.4014
55 | B12 | 0.1943
56 | B13 | -0.3576

Same assay, conditions: Abp1-Lsb3 DHFR-PCA, MTX2; normalized to the reference condition

Row | Molecule | LSB3_MTX2 (frequencies normalized to the reference condition)
57 | B10 | 1.01
58 | B11 | 1.099
59 | B12 | 1.695
60 | B13 | 1.143

Same assay, conditions: Abp1 SH3 DMS; Abp1-Lsb3 DHFR-PCA, MTX2; frequencies normalized to the reference condition

Row | Molecule | LSB3_MTX2 (frequency normalized to the reference condition)
61 | B2 | 1.453
62 | B3 | 1.1067
63 | B4 | 1.507
64 | B5 | 1.962
